In patent publication US20220380438A1 (OXFORD UNIVERSITY INNOVATION, published 2022):

Columns and labels:
[1] = biological target: the molecule itself; assay: NanoBRET, Nluc and HaloTag fusions co-transfected in HEK293T cells
Protocol: (§1) To investigate the interaction between AR FL protein and AR2 protein, NanoBRET assay was performed (Promega NanoBRET™ Protein: Protein Interaction System). Briefly, HEK293T cells were co-transfected with a Nanoluc luciferase (Nluc) fusion plasmid and a HaloTag fusion plasmid with Lipofectamine 2000 reagent. Nluc-MDM2 and p53-HaloTag pair was included as the positive control, and Nluc-MDM2 and HaloTag-SMAD4 pair as negative control. At 24 h after transfection, cells were treated with or without 10 nM DHT. HaloTag NanoBRET 618 ligand or DMSO (no-ligand control) was added. At 24 h, NanoBRET Nano-Glo substrate was added and NanoBRET readings at 460 nm and 618 nm were obtained. Mean corrected NanoBRET ratio in milliBRET unit was calculated using the formula: Mean corrected Nanobret ratio, […]

[2] = biological target: T1, human androgen receptor (AR), full length (human, UniProt P10275 1-920); assay: as above
T1 construct: Full-length AR expressed inside transfected HEK293T cells, not on the cell surface; In the NanoBRET assay it was an N- or C-terminal fusion with Nanoluc luciferase or HaloTag; For co-IP the constructs were with or without an N-terminal FLAG tag; Assays were run with or without 10 nM DHT; also called AR1; AR FL
T1 sequence: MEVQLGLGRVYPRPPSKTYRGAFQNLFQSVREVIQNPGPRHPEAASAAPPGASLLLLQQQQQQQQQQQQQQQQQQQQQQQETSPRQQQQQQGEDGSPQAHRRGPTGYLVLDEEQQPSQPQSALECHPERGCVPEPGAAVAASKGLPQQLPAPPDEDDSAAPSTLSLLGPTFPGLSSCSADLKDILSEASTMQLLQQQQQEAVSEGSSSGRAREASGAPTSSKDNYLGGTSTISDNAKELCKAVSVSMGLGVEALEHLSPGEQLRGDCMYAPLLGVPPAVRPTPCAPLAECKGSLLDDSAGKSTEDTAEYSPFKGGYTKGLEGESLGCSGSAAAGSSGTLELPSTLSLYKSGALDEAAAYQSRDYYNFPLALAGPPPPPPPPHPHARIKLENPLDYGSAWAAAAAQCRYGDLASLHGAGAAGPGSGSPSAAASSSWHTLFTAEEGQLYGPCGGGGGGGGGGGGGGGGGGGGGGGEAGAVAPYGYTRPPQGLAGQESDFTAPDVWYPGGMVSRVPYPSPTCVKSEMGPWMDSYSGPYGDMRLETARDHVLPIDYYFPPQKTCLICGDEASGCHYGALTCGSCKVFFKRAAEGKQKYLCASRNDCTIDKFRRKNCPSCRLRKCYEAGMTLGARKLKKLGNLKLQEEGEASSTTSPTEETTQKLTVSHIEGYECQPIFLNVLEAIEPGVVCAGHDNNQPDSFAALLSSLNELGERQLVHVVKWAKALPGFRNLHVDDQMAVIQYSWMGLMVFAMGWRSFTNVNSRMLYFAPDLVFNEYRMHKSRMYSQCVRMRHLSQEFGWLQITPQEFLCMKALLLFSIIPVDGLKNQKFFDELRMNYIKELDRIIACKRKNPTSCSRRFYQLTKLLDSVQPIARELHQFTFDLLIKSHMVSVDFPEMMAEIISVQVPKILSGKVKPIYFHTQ
Protocol: as §1

- binding result [2]: binds
B1: human androgen receptor splice variant 2 (AR2) (receptor)
chain: MILWLHSLETARDHVLPIDYYFPPQKTCLICGDEASGCHYGALTCGSCKVFFKRAAEGKQKYLCASRNDCTIDKFRRKNCPSCRLRKCYEAGMTLGARKLKKLGNLKLQEEGEASSTTSPTEETTQKLTVSHIEGYECQPIFLNVLEAIEPGVVCAGHDNNQPDSFAALLSSLNELGERQLVHVVKWAKALPGFRNLHVDDQMAVIQYSWMGLMVFAMGWRSFTNVNSRMLYFAPDLVFNEYRMHKSRMYSQCVRMRHLSQEFGWLQITPQEFLCMKALLLFSIIPVDGLKNQKFFDELRMNYIKELDRIIACKRKNPTSCSRRFYQLTKLLDSVQPIARELHQFTFDLLIKSHMVSVDFPEMMAEIISVQVPKILSGKVKPIYFHTQ
notes: Whole AR2 expressed inside transfected HEK293T cells; In the NanoBRET assay it was a fusion with Nanoluc luciferase or HaloTag; For co-IP it was with or without an N-terminal FLAG tag (anti-FLAG M2 beads); also called AR45; AR splice variant 2
- binding result [1]: binds
